Test results: publication doi:10.1101/259481 (bioRxiv, 2018)
Like-named read-outs stand apart in the source and are kept apart here.

T1: recombinant laminin α3_(2928-3150) protein (human, UniProt Q16787 2928-3150)
T1 sequence (looked up): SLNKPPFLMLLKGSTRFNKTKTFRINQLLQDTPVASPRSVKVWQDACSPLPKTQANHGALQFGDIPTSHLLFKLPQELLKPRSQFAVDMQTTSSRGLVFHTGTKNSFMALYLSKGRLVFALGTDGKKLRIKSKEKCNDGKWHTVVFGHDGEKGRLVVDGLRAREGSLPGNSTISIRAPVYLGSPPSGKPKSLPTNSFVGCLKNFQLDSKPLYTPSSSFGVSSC

T2: recombinant human syndecan-1 (human, UniProt P18827 23-254)
T2 sequence (looked up): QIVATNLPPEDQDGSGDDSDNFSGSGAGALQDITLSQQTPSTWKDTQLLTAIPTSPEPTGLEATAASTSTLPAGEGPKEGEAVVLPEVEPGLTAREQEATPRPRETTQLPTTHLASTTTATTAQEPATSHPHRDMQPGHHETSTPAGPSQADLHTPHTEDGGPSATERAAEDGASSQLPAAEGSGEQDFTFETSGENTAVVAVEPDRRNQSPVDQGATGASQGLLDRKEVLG

T3: recombinant human syndecan-4 (human, UniProt P31431 19-145)
T3 sequence (looked up): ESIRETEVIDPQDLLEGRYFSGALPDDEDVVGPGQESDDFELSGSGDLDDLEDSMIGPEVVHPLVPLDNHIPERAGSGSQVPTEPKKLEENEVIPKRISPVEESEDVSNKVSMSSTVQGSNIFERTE

B1: platelet-derived growth factor (PDGF)-BB (ligand, human, UniProt P01127 82-190, looked up)
chain: SLGSLTIAEPAMIAECKTRTEVFEISRRLIDRTNANFLVWPPCVEVQRCSGCCNNRNVQCRPTQVQLRPVQVRKIEIVRKKPIFKKATVTLEDHLACKCETVAAARPVT
B2: placental growth factor (PlGF)-2 (ligand, human, UniProt P49763-3 19-170, looked up)
chain: LPAVPPQQWALSAGNGSSEVEVVPFQEVWGRSYCRALERLVDVVSEYPSEVEHMFSPSCVSLLRCTGCCGDENLHCVPVETANVTMQLLKIRSGDRPSYVELTFSQHVRCECRPLREKMKPERRRPKGRGKRRREKQRPTDCHLCGDAVPRR

How the values were obtained:
[1] = target: laminin-521 (human, UniProt O15230 36-3695; P55268 33-1798; P11047 34-1609); assay: SPR
[2] = target: recombinant laminin α3_(2928-3150) protein (human) (UniProt Q16787); assay: SPR
[3] = target: T1, recombinant laminin α3_(2928-3150) …; assay: SPR
[4] = target: T4, laminin-111 (human, UniProt P25391 18-3075; P07942 22-1786; P11047 34-1609); assay: ELISA
[5] = target: T5, laminin-211 (human, UniProt P24043 23-3122; P07942 22-1786; P11047 34-1609); assay: ELISA
[6] = target: laminin-411 (human, UniProt Q16363 25-1823; P07942 22-1786; P11047 34-1609); assay: ELISA
[7] = target: laminin-421 (human, UniProt Q16363 25-1823; P55268 33-1798; P11047 34-1609); assay: ELISA
[8] = target: B1; assay: ELISA
[9] = target: fibroblast growth factor (FGF)-2 (human, UniProt P09038 143-288); assay: ELISA
[10] = target: B2; assay: ELISA
[11] = target: T2, recombinant human syndecan-1; assay: ELISA
[12] = target: recombinant human syndecan-2 (human, UniProt P34741 19-144); assay: ELISA
[13] = target: T3, recombinant human syndecan-4; assay: ELISA
[14] = target: T1, recombinant laminin α3_(2928-3150) …; assay: ELISA
[15] = target: T4, laminin-111; assay: ELISA; remark: listed apart in the source
[16] = target: T5, laminin-211; assay: ELISA; remark: listed apart in the source

recombinant human syndecan-2, sequence (P34741 19-144): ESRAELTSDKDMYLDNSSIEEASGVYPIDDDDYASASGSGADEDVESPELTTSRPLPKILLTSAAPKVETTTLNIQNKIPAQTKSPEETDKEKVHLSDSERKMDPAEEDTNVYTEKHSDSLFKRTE
fibroblast growth factor (FGF)-2, sequence (P09038 143-288): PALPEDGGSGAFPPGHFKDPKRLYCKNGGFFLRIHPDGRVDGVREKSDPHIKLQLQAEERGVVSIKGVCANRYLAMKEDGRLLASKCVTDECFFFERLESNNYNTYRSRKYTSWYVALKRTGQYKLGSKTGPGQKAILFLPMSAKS

| Kd [1] [nM] | binding result [8] | binding result [9] | binding result [10] | binding result [11] | binding result [12] | binding result [13] | Molecule | further results |
| --- | --- | --- | --- | --- | --- | --- | --- | --- |
| 5.8 | – | – | – | – | – | – | vascular endothelial growth factor (VEGF)-A165 (ligand) | Kd [2]: 1.2 nM |
| 24.2 | – | – | – | – | – | – | B1 | Kd [3]: 10.2 nM; binding result [4]: binds; binding result [5]: binds; binding result [6]: binds; binding result [7]: binds |
| – | binds | binds | binds | – | – | – | TLPDVGLELEVR (peptide, UniProt O15230 3539-3550, looked up) [laminin-derived peptide α5_(3539-3550)] | – |
| – | binds | binds | binds | binds | binds | binds | RLVFALGTDGKKLRIKSKEKCNDGK (peptide, UniProt Q16787 3043-3067, looked up) [laminin-derived peptide α3_(3043-3067)] | – |
| – | – | – | binds | binds | binds | binds | TPGLGPRGLQATARKASRRSRQPARHPACML (peptide, UniProt O15230 3300-3330, looked up) [laminin-derived peptide α5_(3300-3330)] | – |
| – | binds | binds | binds | binds | binds | binds | RQRSRPGRWHKVSVRWEKNR (peptide, UniProt O15230 3417-3436, looked up) [laminin-derived peptide α5_(3417-3436)] | – |
| – | – | binds | – | – | – | – | PPFLMLLKGSTRFNKTKTFR (peptide, UniProt Q16787 2932-2951, looked up) [laminin-derived peptide α3_(2932-2951)] | – |
| 12.9 | – | – | – | – | – | – | B2 | binding result [14]: binds; binding result [6]: binds; binding result [7]: binds; binding result [15]: binds; binding result [16]: binds |
